The values that follow come from patent publication US20210340531A1 (YALE UNIVERSITY, published 2021).

Data set [1] deals with the molecule itself. Description: in vitro filament assembly, negative-stain electron microscopy. As to the method: Filament assembly was terminated after 10 min by adding stop buffer (0.2% glutaraldehyde, 20 mM KCl, 0.7 mM NaHPO). Filament samples were immediately applied to a Carbon type B-400 mesh-Copper grid charged with Pelco easiGlow (Ted Pella, Redding, Calif.) at 25 mA for 30s, and negatively stained using 2% aqueous uranyl acetate. Images were captured with a Talos L120C Electron Microscope from FEI (Hillsboro, Oreg.).
Protein production and purification: Full-length wild-type K1, K10, K8, K18, and vimentin constructs in pET-21a(+) or pET-24a(+) based plasmids are used. K1, K8, and vimentin knob mutants (both individual [FA, LA] and double [FLAA] residue mutants) are also used. K10 is expressed in E. coli BL21(DE3)pLysS cells at 20° C. for 72 hours using an autoinduction method. Expression of all other keratins and vimentins occur in E. coli BL21(DE3) cells using LB at 37° C. for 3 hours with 1 mM IPTG for induction. […]
Electron microscopy: Filament samples are immediately applied to a Carbon type B-400 mesh-Copper grid charged with Pelco easiGlow (Ted Pella, Redding, Calif.) at 25 mA for 30s, and negatively stained using 2% aqueous uranyl acetate. […] Images are analyzed for the number, length, width, and shape of filamentous structures formed at each timepoint to evaluate the dynamics of IF assembly in vitro for both wild-type and knob mutant proteins.

The data set “gel filtration” concerns the molecule itself. Briefly: gel filtration. (In general: Size exclusion chromatography separates by hydrodynamic size, large species first.)
In data set [2] the target is T1, keratin 10 helix 1B (human, UniProt P13645 195-296).
T1 construct: Single chain of the K1/K10-1B complex; His6 tag removed with thrombin before gel filtration, light scattering and crystallization; also called K10-1B; K10
Briefly: K1 knob mutants with K10-1B.

Data set [3] concerns the target T1, keratin 10 helix 1B. Briefly: X-ray crystal structure, asymmetric unit. As to the method:
The final model of the K1^S233L/K10-1B mutant crystal asymmetric unit contained one K1-1B S233L and one K10-1B molecules. The final Ramachandran statistics were: residues in favorable regions, 99%; in allowed regions, 1%; in outlier regions, 0%. Electrostatics were calculated using PDB2PQR and Adaptive Poisson-Boltzmann Software (APBS). Structural analyses were performed using Coot, UCSF Chimera (Resource for Biocomputing, Visualization, and Informatics, University of California, San Francisco), WHAT IF, ESBRI, and PDBePISA (The European Bioinformatics Institute, European Molecular Biology Laboratory, UK). Figures were prepared using UCSF Chimera and Adobe Illustrator. Atomic coordinates and structure factors have been deposited in the Protein Data Bank under the accession code TBD.
Mutant K1/K10-1B (22.8 mg/ml) in 100 mM Tris-HCl buffer (pH 7.4) containing 200 mM NaCl was crystallized using 100 mM Tris buffer (pH 8.5) containing 1.5M ammonium sulfate and 12% glycerol. Crystals were soaked 1-3 min in a cryoprotectant solution containing 27% glycerol in mother liquor prior to flash-freezing in liquid nitrogen. One native data set on a single crystal was collected (λ=0.9795 Å). The native crystal belonged to the hexagonal space group P6 22 (cell dimensions: a=93.29 Å, b=93.29 Å, c=124.74 Å, α=β=90, γ=120). […]

B1: full-length wild-type K1/K10 heterodimeric complex (other)
chain 1: MSRQFSSRSGYRSGGGFSSGSAGIINYQRRTTSSSTRRSGGGGGRFSSCGGGGGSFGAGGGFGSRSLVNLGGSKSISISVARGGGRGSGFGGGYGGGGFGGGGFGGGGFGGGGIGGGGFGGFGSGGGGFGGGGFGGGGYGGGYGPVCPPGGIQEVTINQSLLQPLNVEIDPEIQKVKSREREQIKSLNNQFASFIDKVRFLEQQNQVLQTKWELLQQVDTSTRTHNLEPYFESFINNLRRRVDQLKSDQSRLDSELKNMQDMVEDYRNKYEDEINKRTNAENEFVTIKKDVDGAYMTKVDLQAKLDNLQQEIDFLTALYQAELSQMQTQISETNVILSMDNNRSLDLDSIIAEVKAQNEDIAQKSKAEAESLYQSKYEELQITAGRHGDSVRNSKIEISELNRVIQRLRSEIDNVKKQISNLQQSISDAEQRGENALKDAKNKLNDLEDALQQAKEDLARLLRDYQELMNTKLALDLEIATYRTLLEGEESRMSGECAPNVSVSVSTSHTTISGGGSRGGGGGGYGSGGSSYGSGGGSYGSGGGGGGGRGSYGSGGSSYGSGGGSYGSGGGGGGHGSYGSGSSSGGYRGGSGGGGGGSSGGRGSGGGSSGGSIGGRGSSSGGVKSSGGSSSVRFVSTTYSGVTR
chain 2: MSVRYSSSKHYSSSRSGGGGGGGGCGGGGGVSSLRISSSKGSLGGGFSSGGFSGGSFSRGSSGGGCFGGSSGGYGGLGGFGGGSFRGSYGSSSFGGSYGGIFGGGSFGGGSFGGGSFGGGGFGGGGFGGGFGGGFGGDGGLLSGNEKVTMQNLNDRLASYLDKVRALEESNYELEGKIKEWYEKHGNSHQGEPRDYSKYYKTIDDLKNQILNLTTDNANILLQIDNARLAADDFRLKYENEVALRQSVEADINGLRRVLDELTLTKADLEMQIESLTEELAYLKKNHEEEMKDLRNVSTGDVNVEMNAAPGVDLTQLLNNMRSQYEQLAEQNRKDAEAWFNEKSKELTTEIDNNIEQISSYKSEITELRRNVQALEIELQSQLALKQSLEASLAETEGRYCVQLSQIQAQISALEEQLQQIRAETECQNTEYQQLLDIKIRLENEIQTYRSLLEGEGSSGGGGRGGGSFGGGYGGGSSGGGSSGGGHGGGHGGSSGGGYGGGSSGGGSSGGGYGGGSSSGGHGGSSSGGYGGGSSGGGGGGYGGGSSGGGSSSGGGYGGGSSSGGHKSSSSGSVGESSSKGPRY
notes: also called WT K1/K10
With B1, the binding result in data set [1] is listed as “binds”.

B2: full-length wild-type K8/K18 heterodimeric complex (other, human)
chain 1: MSIRVTQKSYKVSTSGPRAFSSRSYTSGPGSRISSSSFSRVGSSNFRGGLGGGYGGASGMGGITAVTVNQSLLSPLVLEVDPNIQAVRTQEKEQIKTLNNKFASFIDKVRFLEQQNKMLETKWSLLQQQKTARSNMDNMFESYINNLRRQLETLGQEKLKLEAELGNMQGLVEDFKNKYEDEINKRTEMENEFVLIKKDVDEAYMNKVELESRLEGLTDEINFLRQLYEEEIRELQSQISDTSVVLSMDNSRSLDMDSIIAEVKAQYEDIANRSRAEAESMYQIKYEELQSLAGKHGDDLRRTKTEISEMNRNISRLQAEIEGLKGQRASLEAAIADAEQRGELAIKDANAKLSELEAALQRAKQDMARQLREYQELMNVKLALDIEIATYRKLLEGEESRLESGMQNMSIHTKTTSGYAGGLSSAYGGLTSPGLSYSLGSSFGSGAGSSSFSRTSSSRAVVVKKIETRDGKLVSESSDVLPK
chain 2: MSFTTRSTFSTNYRSLGSVQAPSYGARPVSSAASVYAGAGGSGSRISVSRSTSFRGGMGSGGLATGIAGGLAGMGGIQNEKETMQSLNDRLASYLDRVRSLETENRRLESKIREHLEKKGPQVRDWSHYFKIIEDLRAQIFANTVDNARIVLQIDNARLAADDFRVKYETELAMRQSVENDIHGLRKVIDDTNITRLQLETEIEALKEELLFMKKNHEEEVKGLQAQIASSGLTVEVDAPKSQDLAKIMADIRAQYDELARKNREELDKYWSQQIEESTTVVTTQSAEVGAAETTLTELRRTVQSLEIDLDSMRNLKASLENSLREVEARYALQMEQLNGILLHLESELAQTRAEGQRQAQEYEALLNIKVKLEAEIATYRRLLEDGEDFNLGDALDSSNSMQTIQKTTTRRIVDGKVVSETNDTKVLRH
notes: also called K8/18
Turning to B2, the binding result in data set [1] is “binds”.

B3: K1-L318A/10-1B mutant heterodimer (other)
chain 1: NLEPYFESFINNLRRRVDQLKSDQSRLDSELKNMQDMVEDYRNKYEDEINKRTNAENEFVTIKKDVDGAYMTKVDLQAKLDNLQQEIDFLTAAYQAELSQMQTQIS
chain 2: not shown
notes: also called L318A^K1 (LA); K1-L318A/K10-1B
Turning to B3, in the data set “gel filtration”, the binding result is given as “binds”.

B4: K1 F314A+L318A (FLAA)/K10-1B double mutant heterodimer (other)
chain 1: NLEPYFESFINNLRRRVDQLKSDQSRLDSELKNMQDMVEDYRNKYEDEINKRTNAENEFVTIKKDVDGAYMTKVDLQAKLDNLQQEIDALTAAYQAELSQMQTQIS
chain 2: not shown
notes: also called F314A^K1+L318A^K1
On to B4, for which the binding result in “gel filtration” was “no binding”.

B5: K1-F314A/10-1B mutant heterodimer (other)
chain 1: NLEPYFESFINNLRRRVDQLKSDQSRLDSELKNMQDMVEDYRNKYEDEINKRTNAENEFVTIKKDVDGAYMTKVDLQAKLDNLQQEIDALTALYQAELSQMQTQIS
chain 2: not shown
notes: also called F314A^K1 (FA); K1-F314A/K10-1B
Take B5: the binding result in the data set “gel filtration” was “no binding”.

B6: keratin 1 helix 1B L318A (other)
chain: NLEPYFESFINNLRRRVDQLKSDQSRLDSELKNMQDMVEDYRNKYEDEINKRTNAENEFVTIKKDVDGAYMTKVDLQAKLDNLQQEIDFLTAAYQAELSQMQTQIS
notes: Single chain; also called K1-1B mutant L318A; LA
B6: the binding result with keratin 10 helix 1B [2] was “binds”.

B7: keratin 1 helix 1B S233L (other)
chain: NLEPYFELFINNLRRRVDQLKSDQSRLDSELKNMQDMVEDYRNKYEDEINKRTNAENEFVTIKKDVDGAYMTKVDLQAKLDNLQQEIDFLTALYQAELSQMQTQIS
notes: Single chain of the mutant complex; also called K1^S233L-1B; K1-1B S233L
Turning to B7, in the data set with keratin 10 helix 1B [3], the binding result is listed as “binds”.

B8: keratin 1 helix 1B F314A+L318A (other)
chain: NLEPYFESFINNLRRRVDQLKSDQSRLDSELKNMQDMVEDYRNKYEDEINKRTNAENEFVTIKKDVDGAYMTKVDLQAKLDNLQQEIDALTAAYQAELSQMQTQIS
notes: Single chain; also called K1-1B mutant F314A+L318A; FLAA
B8: the binding result with keratin 10 helix 1B [2] is “binds”.
